Measured values from patent publication US20160194394A1 (GOVERNING COUNCIL OF THE UNIVERSITY OF TORONTO, published 2016).
Where two headings read alike, the source gives them in different places.

T1: human Fzd5-Fc
T1 construct: also called FZD5 ECD; Fzd5 CRD-Fc fusion protein (R&D systems); not shown: exact vendor limits of the CRD construct
T1 chain: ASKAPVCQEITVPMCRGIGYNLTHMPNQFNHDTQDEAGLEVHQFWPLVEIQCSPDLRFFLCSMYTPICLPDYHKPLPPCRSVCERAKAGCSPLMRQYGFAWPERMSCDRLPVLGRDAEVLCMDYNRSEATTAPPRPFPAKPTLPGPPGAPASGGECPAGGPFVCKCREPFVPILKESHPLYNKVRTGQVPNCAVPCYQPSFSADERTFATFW

T2: human Fzd8-Fc
T2 construct: also called FZD8 ECD; Fzd8 CRD-Fc fusion protein (R&D systems); not shown: exact vendor limits of the CRD construct
T2 chain: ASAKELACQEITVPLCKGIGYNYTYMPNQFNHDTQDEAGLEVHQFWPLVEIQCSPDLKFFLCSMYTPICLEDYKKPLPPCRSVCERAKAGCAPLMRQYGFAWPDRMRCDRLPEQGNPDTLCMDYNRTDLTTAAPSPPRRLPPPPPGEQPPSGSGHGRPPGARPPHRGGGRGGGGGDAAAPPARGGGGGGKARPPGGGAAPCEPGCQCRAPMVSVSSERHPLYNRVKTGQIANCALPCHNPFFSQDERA

T3: FZD4 ECD
T3 construct: also called Fzd4 CRD-Fc fusion protein (R&D systems); not shown: exact vendor limits of the CRD construct
T3 chain: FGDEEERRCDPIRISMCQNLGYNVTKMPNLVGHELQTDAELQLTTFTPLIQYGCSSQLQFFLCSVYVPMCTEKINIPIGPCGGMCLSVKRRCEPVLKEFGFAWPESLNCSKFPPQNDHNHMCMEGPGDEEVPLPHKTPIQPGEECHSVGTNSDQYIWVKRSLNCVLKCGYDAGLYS


Assays:
[1] = molecular target: T4, human Fzd1-Fc; experiment: SPR
T4 construct: also called FZD1 ECD; Fzd1 CRD-Fc fusion protein (R&D systems); not shown: exact vendor limits of the CRD construct
T4 sequence (chain, as listed by the source limits assumed): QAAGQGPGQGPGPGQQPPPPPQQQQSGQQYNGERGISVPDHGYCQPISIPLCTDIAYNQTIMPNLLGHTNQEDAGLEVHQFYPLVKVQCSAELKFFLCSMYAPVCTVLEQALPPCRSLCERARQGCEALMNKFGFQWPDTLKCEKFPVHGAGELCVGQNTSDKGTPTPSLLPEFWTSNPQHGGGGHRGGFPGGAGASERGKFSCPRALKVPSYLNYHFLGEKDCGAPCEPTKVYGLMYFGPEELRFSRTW

[2] = molecular target: T5, mouse Fzd2-Fc; experiment: SPR
T5 construct: also called mFZD2 ECD; Fzd2 CRD-Fc fusion protein (R&D systems); not shown: exact vendor limits of the CRD construct
T5 sequence (chain, as listed by the source limits assumed): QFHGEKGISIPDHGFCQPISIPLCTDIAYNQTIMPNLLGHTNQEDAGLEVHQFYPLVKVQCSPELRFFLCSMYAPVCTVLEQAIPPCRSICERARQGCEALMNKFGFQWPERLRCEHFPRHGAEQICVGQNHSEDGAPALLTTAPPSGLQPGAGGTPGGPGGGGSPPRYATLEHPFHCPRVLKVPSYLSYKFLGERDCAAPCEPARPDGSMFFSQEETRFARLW

[3] = molecular target: T1, human Fzd5-Fc; experiment: SPR
[4] = molecular target: T2, human Fzd8-Fc; experiment: SPR
[5] = molecular target: T3, FZD4 ECD; experiment: SPR
[6] = molecular target: T6, recombinant Frizzled receptor 7 (FZD7) cysteine-rich domain (CRD) fused to the Fc region of human IgG (human, UniProt O75084 33-185); experiment: SPR
[7] = molecular target: T6, recombinant Frizzled receptor 7 (FZD7) …; experiment: SPR; remark: listed apart in the source
[8] = molecular target: T7, FZD7 receptor expressed on cells (full-length) (UniProt O75084 33-574, limits assumed); experiment: cell-based or functional assay
[9] = molecular target: T6, recombinant Frizzled receptor 7 (FZD7) …; experiment: ELISA, 1ug/ml (20nM) Fab [cont'd]
Procedure, shortened: (§1)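 Plates coated with 2 ug/ml FZD7-Fc or Fc protein were probed with bacterially expressed purified Fabs for 1 h at room temperature in 0.5% BSA/0.05% Tween20/PBS. Bound Fab detected with anti-FLAG-HRP for 45 min, developed with TMB and acid stop, and read as absorbance at 450 nm; n.t. = not tested.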

[10] = molecular target: T6, recombinant Frizzled receptor 7 (FZD7) …; experiment: ELISA, 10ug/ml (200nM) Fab [cont'd]
Procedure, shortened: as §1

[11] = molecular target: T6, recombinant Frizzled receptor 7 (FZD7) …; experiment: competitive ELISA, detected phage-Fab A1
[12] = molecular target: T6, recombinant Frizzled receptor 7 (FZD7) …; experiment: competitive ELISA, detected phage-Fab E4
[13] = molecular target: T6, recombinant Frizzled receptor 7 (FZD7) …; experiment: competitive ELISA, detected phage-Fab E8
[14] = molecular target: T6, recombinant Frizzled receptor 7 (FZD7) …; experiment: competitive ELISA, detected phage-Fab G2
[15] = molecular target: T6, recombinant Frizzled receptor 7 (FZD7) …; experiment: competitive ELISA, detected phage-Fab G6
[16] = molecular target: T6, recombinant Frizzled receptor 7 (FZD7) …; experiment: competitive ELISA, detected phage-Fab H1
[17] = molecular target: T6, recombinant Frizzled receptor 7 (FZD7) …; experiment: competitive ELISA, detected phage-Fab H3
[18] = molecular target: T6, recombinant Frizzled receptor 7 (FZD7) …; experiment: competitive ELISA, detected phage-Fab D10
[19] = molecular target: T6, recombinant Frizzled receptor 7 (FZD7) …; experiment: competitive ELISA, detected phage-Fab H10
[20] = molecular target: T7, FZD7 receptor expressed on cells …; experiment: flow cytometry, 200 nM Fab, MDA MB 231 [cont'd]
Procedure, shortened: (§2)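 EDTA-harvested MDA MB 231 cells, either FZD7-overexpressing or with endogenous receptor, were blocked in 2% FBS/PBS and stained with Fab for 30 min on ice. Detection used anti-F(ab′)₂-APC (1:1000, 15 min on ice), then 1% paraformaldehyde fixation and flow cytometry. Values are percent of cells in positive gates.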

[21] = molecular target: T7, FZD7 receptor expressed on cells …; experiment: flow cytometry, 200 nM Fab, FZD7 over-expression line (MDA MB 231) [cont'd]
Procedure, shortened: as §2

[22] = molecular target: T7, FZD7 receptor expressed on cells …; experiment: cell-based or functional assay; remark: listed apart in the source
[23] = molecular target: recombinant Frizzled receptor 7 (FZD7) cysteine-rich domain (CRD) fused to the Fc region of human IgG (human, UniProt O75084 33-185); experiment: SPR; remark: listed apart in the source

| Kd [1] [nM] | Kd [2] [nM] | Kd [3] [nM] | Kd [4] [nM] | Kd [6] [nM] | Kd [7] [nM] | koff [7] [s⁻¹] | kon [7] [M⁻¹ s⁻¹] | decrease in Wnt 3a-induced transcriptional activity (TOP-FLASH luciferase reporter in MDA MB 231 cells, 400 nM Fab) [8] [%] | OD 450 [9] | OD 450 [10] | % of Fab phage in presence of 750 nM Fab [11] [%] | % of Fab phage in presence of 750 nM Fab [12] [%] | % of Fab phage in presence of 750 nM Fab [13] [%] | % of Fab phage in presence of 750 nM Fab [14] [%] | % of Fab phage in presence of 750 nM Fab [15] [%] | % of Fab phage in presence of 750 nM Fab [16] [%] | % of Fab phage in presence of 750 nM Fab [17] [%] | % of Fab phage in presence of 750 nM Fab [18] [%] | % of Fab phage in presence of 750 nM Fab [19] [%] | Binder | further results |
| --- | --- | --- | --- | --- | --- | --- | --- | --- | --- | --- | --- | --- | --- | --- | --- | --- | --- | --- | --- | --- | --- |
| 1.07 | 1.75 | 15.8 | 9.31 | 2.09 | 2.09 | 0.000994 | 476000 | > 70 | 3.22 | 3.23 | 4.2 | 7.3 | 6.5 | 4.7 | 8.2 | 13.7 | 15.1 | 5 | 5.2 | Fab A1 (Fab) chain 1: EVQLVESGGGLVQPGGSLRLSCAASGFNISSYYIHWVRQAPGKGLEWVASIYPYYSSTYYADSVKGRFTISADTSKNTAYLQMNSLRAEDTAVYYCARVWYGAMDYWGQGTLVTVSSASTKGPSVFPLAPSSKSTSGGTAALGCLVKDYFPEPVTVSWNSGALTSGVHTFPAVLQSSGLYSLSSVVTVPSSSLGTQTYICNVNHKPSNTKVDKKVEPKSC chain 2: DIQMTQSPSSLSASVGDRVTITCRASQSVSSAVAWYQQKPGKAPKLLIYSASSLYSGVPSRFSGSRSGTDFTLTISSLQPEDFATYYCQQYYHPITFGQGTKVEIKRTVAAPSVFIFPPSDSQLKSGTASVVCLLNNFYPREAKVQWKVDNALQSGNSQESVTEQDSKDSTYSLSSTLTLSKADYEKHKVYACEVTHQGLSSPVTKSFNRGECGGS | Kd [5]: 13.3 nM; % population within the positive gate [20]: 98.6%; % population within the positive gate [21]: 93.1% |
|  |  |  |  |  |  |  |  |  |  |  |  |  |  |  |  |  |  |  |  | IgG E8 (antibody, V domains shown) VH: EVQLVESGGGLVQPGGSLRLSCAASGFNIYSSYIHWVRQAPGKGLEWVAYIYSYSGYTYYADSVKGRFTISADTSKNTAYLQMNSLRAEDTAVYYCARWYHPYWYASAIDYWGQGTLVTVSS VL: DIQMTQSPSSLSASVGDRVTITCRASQSVSSAVAWYQQKPGKAPKLLIYSASSLYSGVPSRFSGSRSGTDFTLTISSLQPEDFATYYCQQVSGGGGLITFGQGTKVEIK | IC50, Wnt3a-induced Top Flash reporter (% ligand mediated) [22]: 106 nM |
| 0.33 | 0.65 | 1.43 | 0.88 | 0.42 | 0.422 | 0.000803 | 1.9e+06 | > 70 | 3.24 | 3.27 | 6.5 | 5.1 | 5.9 | 4.6 | 7.4 | 21.9 | 10.5 | 6.1 | 3.2 | Fab E4 (Fab) chain 1: EVQLVESGGGLVQPGGSLRLSCAASGFNLSYYSMHWVRQAPGKGLEWVASIYPSYGYTYYADSVKGRFTISADTSKNTAYLQMNSLRAEDTAVYYCARPSPGSYHGMDYWGQGTLVTVSSASTKGPSVFPLAPSSKSTSGGTAALGCLVKDYFPEPVTVSWNSGALTSGVHTFPAVLQSSGLYSLSSVVTVPSSSLGTQTYICNVNHKPSNTKVDKKVEPKSC chain 2: DIQMTQSPSSLSASVGDRVTITCRASQSVSSAVAWYQQKPGKAPKLLIYSASSLYSGVPSRFSGSRSGTDFTLTISSLQPEDFATYYCQQSSYSLITFGQGTKVEIKRTVAAPSVFIFPPSDSQLKSGTASVVCLLNNFYPREAKVQWKVDNALQSGNSQESVTEQDSKDSTYSLSSTLTLSKADYEKHKVYACEVTHQGLSSPVTKSFNRGECGGS | % population within the positive gate [20]: 98.8%; % population within the positive gate [21]: 93.4% |
|  |  |  |  |  |  |  |  |  |  |  |  |  |  |  |  |  |  |  |  | IgG D10 (antibody, V domains shown, Fab converted into full-length IgG1, made in 293F cells) VL: DIQMTQSPSSLSASVGDRVTITCRASQSVSSAVAWYQQKPGKAPKLLIYSASSLYSGVPSRFSGSRSGTDFTLTISSLQPEDFATYYCQQYWAPITFGQGTKVEIK VH: EVQLVESGGGLVQPGGSLRLSCAASGFNIYYYYMHWVRQAPGKGLEWVASIYSYSGSTYYADSVKGRFTISADTSKNTAYLQMNSLRAEDTAVYYCARYASYVGYYPWALDYWGQGTLVTVSS | Kd [23]: 1.45 nM; IC50, Wnt3a-induced Top Flash reporter (% ligand mediated) [22]: 123 nM |
|  |  |  |  |  |  |  |  |  |  |  |  |  |  |  |  |  |  |  |  | IgG G6 (antibody, V domains shown, Fab converted into full-length IgG1, made in 293F cells) VL: DIQMTQSPSSLSASVGDRVTITCRASQSVSSAVAWYQQKPGKAPKLLIYSASSLYSGVPSRFSGSRSGTDFTLTISSLQPEDFATYYCQQYYSLFTFGQGTKVEIK VH: EVQLVESGGGLVQPGGSLRLSCAASGFNIYYYSMHWVRQAPGKGLEWVAYISPSYGYTYYADSVKGRFTISADTSKNTAYLQMNSLRAEDTAVYYCARGYFYSWGGMDYWGQGTLVTVSS | Kd [23]: 0.3 nM |
